Where no end group is shown, it is not given here.

The nature of data set [1]: Circular dichroism: percentage β-sheet (k2d software). It is filed as physicochemical. The procedure: UV circular dichroism (CD) spectra of peptide and protein solutions ([…] in H2O) were measured on a JASCO J-810 CD spectropolarimeter (Tokyo, Japan). Averaged absorption spectra of five or ten single measurements from 190-240 nm or from 190-250 nm, for fibrin peptides 85, 86, 87 or for albumin, glycated albumin and human Aβ (16-22), respectively, are recorded. The CD spectrum of Aβ (16-22) was measured as a positive control. Aβ (16-22) readily adopts amyloid fiber conformation with cross-β structure when incubated in H2O^45. For albumin and Aβ (16-22), relative percentage of the secondary structure elements present was estimated using k2d software.^48
(In general: Circular dichroism is widely used to follow secondary structure.)

A further data set concerns the target T1, tPA (Homo sapiens, UniProt P00750).
T1 construct: purchased Boehringer-Ingelheim (Germany)
As to the kind of experiment: ELISA: binding of tPA to 86-week glycated albumin-AGE preparations. To be noted: albumin incubated 86 weeks; 10 mM εACA. On the procedure: Binding of the cross-B structure marker tPA to albumin-AGE was tested using an ELISA setup. […] Therefore, we used tPA binding to these two peptides as positive control. The 86-week glycated samples and controls were coated to Greiner microlon plates (catalogue #655092, Greiner, Frickenhausen, Germany). Wells were blocked with Superblock (Pierce, Rockford, Ill., USA). All subsequent incubations were performed in PBS/0.1% (v/v) Tween 20 for one hour at room temperature while shaking, with volumes of 50 μl per well. After incubation, wells were washed five times with 300 μl PBS/0.1% (v/v) Tween 20. Increasing concentrations of tPA were added in triplicate to coated wells as well as to control wells. During tPA incubations of 86-week incubated samples, at least a 123,000 times molar excess of ε-amino caproic acid (εACA, 10 mM) was added to the solutions. εACA is a lysine analogue and is used to avoid potential binding of tPA to albumin via its kringle 2 domain.^50 Monoclonal antibody 374b (American Diagnostica, Instrumentation laboratory, Breda, The Netherlands) and, subsequently, RAMPO (Dako diagnostics, Glostrup, Denmark) was added to the wells at a concentration of 0.3 μg ml^−1. Bound peroxidase-labeled antibody was visualized using 100 μl of a solution containing 8 mg ortho-phenylene-diamine in 20 ml 50 mM citric acid/100 mM Na2HPO4 pH 5.0 with 0.0175% (v/v) H2O2. Staining was stopped upon adding 50 μl of a 2 M H2SO4 solution. Absorbance was read at 490 nm on a Vmax kinetic microplate reader (Molecular Devices, CA, USA). Background signals from non-coated control wells were substracted from corresponding coated wells.
For orientation: An ELISA detects its analyte on a solid surface through an enzyme-linked reagent.

The target in a further data set is T2, Aβ fibrils (Homo sapiens, UniProt P05067).
T2 construct: Peptide Aβ (1-40), containing amino acids as present in the described human Alzheimer peptide; purchased Pepscan, Inc. (The Netherlands) or peptide synthesis facility at the Netherlands Cancer Institute; host or cells: synthetic peptide
T2 sequence (P05067 672-711): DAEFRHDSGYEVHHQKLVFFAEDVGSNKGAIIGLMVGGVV
As to the kind of experiment: Amyloid pull-down with insoluble Aβ fibers. It is filed as binding. To be noted: conditioned BHK medium. On the procedure:
Conditioned medium of BHK cells expressing GST-tagged tPA F, F-EGF, EGF, K1, F-EGF-K1, FXII F, HGFa F, Fn F4, Fn F5, Fn F4-5 and GST was used for amyloid binding assays. At first, constructs were adjusted to approximately equal concentration using Western blots. Qualitative binding of the recombinant fragments were evaluated using a “pull-down” assay. To this end, the recombinantly made fragments were incubated with either Aβ or IAPP fibrils. Since these peptides form insoluble fibers, unbound proteins can be easily removed from the fibers following centrifugation. The pellets containing the bound fragments were subsequently washed several times. Bound fragments were solubilized in SDS-sample buffer and analyzed by PAGE, as were unbound proteins in the supernatant fraction and starting material. The gels were analyzed using immunoblotting analysis with the anti-GST antibody Z-5.

For data set [2], the target named is T3, tPA-mediated plasminogen activation (Homo sapiens, UniProt P00750).
T3 construct: purchased Boehringer-Ingelheim (Germany)
T3 sequence (P00750 36-562): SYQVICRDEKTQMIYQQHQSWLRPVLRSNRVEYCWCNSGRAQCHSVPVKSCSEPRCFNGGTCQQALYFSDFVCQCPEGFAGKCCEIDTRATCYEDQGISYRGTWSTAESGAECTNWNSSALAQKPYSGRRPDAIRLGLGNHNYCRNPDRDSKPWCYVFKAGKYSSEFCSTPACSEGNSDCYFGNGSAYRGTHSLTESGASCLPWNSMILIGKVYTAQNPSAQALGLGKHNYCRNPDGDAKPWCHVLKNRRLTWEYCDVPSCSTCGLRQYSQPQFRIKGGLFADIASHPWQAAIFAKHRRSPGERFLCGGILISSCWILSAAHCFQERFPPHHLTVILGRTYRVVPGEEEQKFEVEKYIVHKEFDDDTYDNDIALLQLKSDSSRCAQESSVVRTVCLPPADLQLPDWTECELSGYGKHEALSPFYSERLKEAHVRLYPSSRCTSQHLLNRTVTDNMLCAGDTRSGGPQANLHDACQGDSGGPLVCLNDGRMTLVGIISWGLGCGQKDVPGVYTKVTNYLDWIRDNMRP
The experiment in a line: Plasminogen activation assay. It is filed as biochemical. To be noted: plasminogen 200 μg ml−1, tPA 200 pM, 5 μM co-factor, S-2251. On the procedure:
Plasminogen (200 μg ml^−1) was incubated with tPA (200 pM) in the presence or the absence of a co-factor (5 μM of either endostatin, Aβ (1-40), or one the fibrin-derived peptides 85, 86 and 87). At the indicated time intervals, samples were taken and the reaction was stopped in a buffer containing 5 mM EDTA and 150 mM εACA. After collection of the samples, a chromogenic plasmin substrate S-2251 was added and plasmin activity was determined kinetically in a spectrophotometer at 37° C.

A further data set has as its target T4, Aβ (Homo sapiens, UniProt P05067).
T4 construct: Peptide Aβ (1-40), containing amino acids as present in the described human Alzheimer peptide; purchased Pepscan, Inc. or peptide synthesis facility of the Netherlands Cancer Institute; host or cells: chemical synthesis
The experiment in a line: Solid-phase binding ELISA of tPA, plasminogen and plasmin to coated Aβ. Particulars: Aβ coated onto plastic 96-well plates. The procedure:
FIG. 3 is a set of graphs depicting binding of tPA, plasminogen and plasmin to Aβ. Aβ was coated onto plastic 96-well plates. Increasing concentrations of either (A) tPA or (B) plasmin(ogen) were allowed to bind to the immobilized peptide. After extensive washing, tPA and plasmin(ogen) binding was assessed by enzyme-linked immunosorbent assays using anti-tPA and anti-plasminogen antibodies. Binding of (C) tPA and (D) plasmin to Aβ in the presence of 50 mM ε-aminocaproic acid (ε-ACA) was assessed as in A and B.
To test whether tPA, plasminogen and plasmin bind Aβ, solid-phase binding assays were performed. Aβ was coated onto plastic 96-well plates and binding of the peptide to either plasmin(ogen) or to tPA was assessed by overlaying the coated peptide with increasing concentrations of either tPA, plasminogen or plasmin. Binding was assessed using specific antibodies to either plasmin(ogen) or to tPA by performing ELISA. […] However, activated plasminogen (plasmin) does bind to Aβ and does so with a kD of 47 nM. […] To test this, use was made of the lysine analogue ε-aminocaproic acid (εACA) and binding of plasmin and tPA to Aβ was tested in its presence. […] In contrast, εACA has no effect on the tPA-Aβ interaction (FIG. 3, Panel C). Thus, it was concluded that plasmin binds to free lysines that were generated during the incubation period, presumably via its lysine-binding Kringle domain(s). In line with this, the kD of plasminogen Kringle domain binding to free lysines in fibrin is similar to the kD for plasmin binding to Aβ.

In data set [3] the test system is differentiated N1E-115 cells. As to the kind of experiment: N1E-115 cell detachment (methylene blue staining). It is filed as cell-based, mouse. To be noted: 24 hours. On the procedure: FIG. 4 is a set of graphs illustrating stimulation of tPA-mediated plasmin formation by Aβ and synergistic stimulation of cell detachment by plasminogen and Aβ. Panel A depicts that plasminogen (200 μg/ml) and tPA (200 pM) were incubated with Aβ (5 μM) or control buffer. Samples were taken from the reaction mixture at the indicated periods of time and plasmin activity was measured by conversion of the chromogenic plasmin substrate S-2251 at 405 nm. […] After 48 hours, the dead cells were washed away and the remaining adherent cells were stained with methylene blue. Plasmin cannot prevent Aβ-induced cell detachment. Panel C illustrates that N1E-115 cells were differentiated and received the indicated concentrations of plasminogen in the presence or absence of 10 μM Aβ. After 24 hours, cell detachment was assessed. […] Panel D is an immunoblot analysis of plasmin formation and laminin degradation. Differentiated N1E-115 cells were treated with or without Aβ (10 μM) in the absence or presence of added plasminogen. Addition of Aβ results in the formation of plasmin (bottom panel) and in degradation of laminin (top panel).
FIG. 5 depicts graphs illustrating that carboxypeptidase B inhibits Aβ-stimulated tPA-mediated plasmin formation and cell detachment. […] Samples were taken from the reaction mixture at the indicated periods of time and plasmin activity was measured by conversion of the chromogenic plasmin substrate S-2251 at 405 nm. The reaction was performed in the absence or the presence of 50 μg ml^−1 carboxypeptidase B (CpB) and in the absence or presence of 3.5 μM carboxypeptidase inhibitor (CPI). CpB greatly attenuates A-stimulated plasmin formation. […] After 24 hours, the cells were photographed. Panel C illustrates that, subsequently, the cells were washed once with PBS and the remaining cells were quantified as percentage-adhered cells by methylene blue staining. In Panel D, the cells were treated as in Panels B and C and medium and cell fractions were collected and analyzed by Western blot using an anti-plasmin(ogen) antibody. Aβ stimulates plasmin formation that is inhibited by CpB.
N1E-115 mouse neuroblastoma cells were routinely cultured in DMEM containing 5% FCS, supplemented with antibiotics. Cells were differentiated into post-mitotic neurons.^52 The cells were exposed to Aβ (50 μg ml^−1) for 24 hours in the presence or absence of 20 μg ml^−1 plasminogen in the presence or absence of 50 μg ml^−1 CpB. Cells were photographed, counted and lysed by the addition of 4× sample buffer (250 mM Tris pH 6.8, 8% SDS, 10% glycerol, 100 mM DTT, 0.01% w/v bromophenol blue) to the medium. The lysate, containing both adherent and floating (presumably dying and/or dead) cells, as well as the culture medium, were analyzed for the presence of plasminogen and plasmin, as well as for laminin, by Western blot analysis using specific antibodies against plasminogen (MoAb 3642, American Diagnostics), laminin (PoAb L9393, Sigma).

T1 sequence (P00750 36-562): as above
T4 sequence (P05067 672-711): as the sequence (P05067 672-711) above

Regarding “Albumin control: albumin incubated with g6p or glyceraldehyde omitted [reference compound]”, the “β-sheet (%)” value in data set [1] (incubation time 2 weeks) and in data set [1] (incubation time 23 weeks) was 0% in each case.
In the case of “Albumin-glyceraldehyde: glyceraldehyde-modified albumin”, the “binding of amyloid-specific serine protease tPA” value with tPA is “bound specifically”. For the same molecule, the “β-sheet (%)” value in data set [1] (incubation time 2 weeks) turned out to be 0%.
On to “Aβ (16-22): human Aβ fragment, positive control that adopts amyloid fiber conformation (KLVFFAE) [reference compound]”, for which, in data set [1] (no incubation time given), the “β-sheet (%)” value is recorded as 100%.
Take “EGF-GST: EGF fragment of human tPA with C-terminal GST tag (CSEPRCFNGGTCQQALYFSDFVCQCPEGFAGKCCEID-{GST}; cysteine pairing not given here)”: the “binding to Aβ fibers (pull-down, Western blot)” value (from here on “binding to Aβ fibers”) with Aβ fibrils was “remain in the supernatant”.
In the case of “KCNTATCATQRLANFLVHSSNNFGAILSSTNVGSNTY (Peptide fl-hIAPP from Homo sapiens)”, the “stimulation of tPA-mediated plasmin formation” value (“stimulation” for short) in data set [2] was “stimulate”; in data set [2] (listed as IAPP), “enhanced”. Also, the “binding of amyloid-specific serine protease tPA” value with tPA is “bound specifically”.
As to “KRLEVDIDIK (Peptide FP10 from Homo sapiens) [compound 87]”, in data set [2], the “stimulation” value is “does not”.
The same measure, in the same setting: in the case of “KRLEVDIDIKIR (Peptide FP12 from Homo sapiens) [compound 86]” it was “stimulate”; in that of “KRLEVDIDIKIRS (Peptide FP13 from Homo sapiens) [compound 85]”, “stimulate”; in that of “SNNFGAILSS (Peptide Delta hIAPP from Homo sapiens) [Δ-hIAPP]”, “stimulate”.
For the molecule “SNNLGPVLPP (Peptide Delta mIAPP from Homo sapiens) [Δ-mIAPP]”, in data set [2], the “stimulation” value was “not”.
On to “albumin-glyoxylic acid: albumin incubated 86 weeks with 500 mM glyoxylic acid/100 mM NaCNBH3”, for which the “binding of amyloid-specific serine protease tPA” value with tPA is on record as “No tPA binding”.
Take “plasminogen: inactive precursor of plasmin, cleaved by tPA”: the “binding to Aβ” value with Aβ is on record as “No detectable binding”. Also, in data set [3], the “cell adhesion in the absence of Aβ” value is reported as “no effect” and the “minimal levels required to potentiate Aβ-induced cell detachment” value is 10 to 20 µg/mL. The “effect on Aβ-induced cell detachment” value in data set [3] (suboptimal Aβ (10 μM), low plasminogen) is recorded as “dramatic potentiating effect”.

B1: F-EGF-K1-GST: F-EGF-K1 fragment of human tPA with C-terminal GST tag (protein)
chain: SYQVICRDEKTQMIYQQHQSWLRPVLRSNRVEYCWCNSGRAQCHSVPVKSCSEPRCFNGGTCQQALYFSDFVCQCPEGFAGKCCEIDTRATCYEDQGISYRGTWSTAESGAECTNWNSSALAQKPYSGRRPDAIRLGLGNHNYCRNPDRDSKPWCYVFKAGKYSSEFCSTPACSE
modifications: left off: small tags and cut ends; a dimerising Fc or GST
notes: F-EGF-K1 fragment of human tPA with C-terminal GST tag
Turning to B1, the “binding to Aβ fibers” value in the data set with Aβ fibrils is listed as “Efficient binding”.

B2: K1-GST: K1 fragment of human tPA with C-terminal GST tag (protein)
chain: TRATCYEDQGISYRGTWSTAESGAECTNWNSSALAQKPYSGRRPDAIRLGLGNHNYCRNPDRDSKPWCYVFKAGKYSSEFCSTPACSE
modifications: left off: small tags and cut ends; a dimerising Fc or GST
notes: K1 fragment of human tPA with C-terminal GST tag
As for B2, the “binding to Aβ fibers” value with Aβ fibrils was “remain in the supernatant”.

For the origin of these results see patent publication US8158585B2, “Cross-β structure comprising amyloid-binding proteins and methods for detection of the cross-β structure, for modulating cross-β structures fiber formation and modulating cross-β structure-mediated toxicity” (CrossBeta Biosciences B.V., priority 2002, dated 2012).
